Data from patent US6528275B1, “Substrates and inhibitors of proteolytic enzymes” (Peptide Therapeutics Limited, priority 1996, dated 2003).

What was measured:
Experiment in all cases: Der pI substrate assay with FRET peptides (fluorescence, Km, kcat/Km)
Type in all cases: biochemical, house dust mite
Details in all cases: other: purified Der pI; peptides SEQ ID Nos. 1-76; pH 8.25
[1] = substrate: CC(C)CC[C@H](NC(=O)[C@H](C)NC(=O)[C@H](Cc1ccc(-c2ccccc2)cc1)NC(=O)c1ccccc1N)C(=O)N[C@@H](CC1CCCCC1)C(=O)N[C@@H](Cc1ccc(O)c([N+](=O)[O-])c1)C(=O)N[C@@H](CC(=O)O)C(N)=O
Method: (§1) Using the general techniques described above, the following compounds were prepared and assayed as potential substrates against Der pI purified as described above.
(§2) Each mixture of 20 compounds in the libraries of the apparatus described herein was screened at a concentration of 1.0 μM per compound in an assay against the cysteinyl protease Der pI.
(§3) Plate assays were carried out in 96 well plate format, using 0.1 ug of Der pI per 100 μL assay volume in each well and using 20 μM of the substrate. All assays were performed in Assay Buffer (AB; 50 mM potassium phosphate, pH 8.25 containing 1 mM ethylenediaminetetraacetic acid (EDTA) and 1 mM dithiothreitol (DTT). The Der pI enzyme is pre-activated by addition of DTT and this in incubated at room temperature for 5 min. prior to initiation of the assay. As an example for the screening methodology, each well contains a 5 μL of a 20 μM solution of the test compound in DMSO, 10 μL of a 200 μM aqueous solution of the substrate, 2, and 85 μL of Der pI in AB is added to initiate the reaction. Enzyme activity is monitored by fluorescence using 320 nm for excitation and 420 nm for the emission wavelengths using a Labsystems Fluroskan Ascent machine. Kinetic measurements were carried out using a Hitachi F-4500 Fluorescence Spectrophotometer.

[2] = substrate: CC(C)CC[C@H](NC(=O)[C@H](C)NC(=O)[C@H](Cc1ccc(-c2ccccc2)cc1)NC(=O)c1ccccc1N)C(=O)N[C@@H](Cc1ccc(O)cc1)C(=O)N[C@@H](Cc1ccc(O)c([N+](=O)[O-])c1)C(=O)N[C@@H](CC(=O)O)C(N)=O
Method: as §1, §2, §3

[3] = substrate: CCCC[C@H](NC(=O)[C@H](C)NC(=O)[C@@H](NC(=O)[C@H](Cc1ccc(-c2ccccc2)cc1)NC(=O)c1ccccc1N)C(C)C)C(=O)N[C@@H](CO)C(=O)N[C@@H](Cc1ccc(O)c([N+](=O)[O-])c1)C(=O)N[C@@H](CC(=O)O)C(N)=O
Method: as §1, §2, §3

[4] = substrate: CC(C)[C@H](NC(=O)c1ccccc1N)C(=O)N[C@@H](C)C(=O)N[C@@H](Cc1cccnc1)C(=O)N[C@@H](CO)C(=O)N[C@@H](Cc1ccc(O)c([N+](=O)[O-])c1)C(=O)N[C@@H](CC(=O)O)C(N)=O
Method: as §1, §2, §3

[5] = substrate: CCCC[C@H](NC(=O)[C@H](C)NC(=O)[C@@H](NC(=O)[C@H](CCC(=O)O)NC(=O)c1ccccc1N)C(C)C)C(=O)N[C@@H](CO)C(=O)N[C@@H](Cc1ccc(O)c([N+](=O)[O-])c1)C(=O)N[C@@H](CC(=O)O)C(N)=O
Method: as §1, §2, §3

[6] = substrate: CC(C)CC[C@H](NC(=O)[C@H](C)NC(=O)[C@H](Cc1ccc(-c2ccccc2)cc1)NC(=O)c1ccccc1N)C(=O)N[C@@H](Cc1cccnc1)C(=O)N[C@@H](Cc1ccc(O)c([N+](=O)[O-])c1)C(=O)N[C@@H](CC(=O)O)C(N)=O
Method: as §1, §2, §3

[7] = substrate: CC(C)CC[C@H](NC(=O)[C@H](C)NC(=O)[C@H](Cc1ccc2ccccc2c1)NC(=O)c1ccccc1N)C(=O)N[C@@H](CO)C(=O)N[C@@H](Cc1ccc(O)c([N+](=O)[O-])c1)C(=O)N[C@@H](CC(=O)O)C(N)=O
Method: as §1, §2, §3

[8] = substrate: CC(C)CC[C@H](NC(=O)[C@H](C)NC(=O)[C@@H](NC(=O)c1ccccc1N)C(C)C)C(=O)N[C@@H](CO)C(=O)N[C@@H](Cc1ccc(O)c([N+](=O)[O-])c1)C(=O)N[C@@H](CC(=O)O)C(N)=O
Method: as §1, §2, §3

[9] = substrate: CC(C)CC[C@H](NC(=O)[C@H](C)NC(=O)[C@H](Cc1ccc(-c2ccccc2)cc1)NC(=O)c1ccccc1N)C(=O)N[C@@H](CC(=O)O)C(=O)N[C@@H](Cc1ccc(O)c([N+](=O)[O-])c1)C(=O)N[C@@H](CC(=O)O)C(N)=O
Method: as §1, §2, §3

[10] = substrate: CCCC[C@H](NC(=O)[C@H](C)NC(=O)[C@@H](NC(=O)c1ccccc1N)C(C)C)C(=O)N[C@@H](CO)C(=O)N[C@@H](Cc1ccc(O)c([N+](=O)[O-])c1)C(=O)N[C@@H](CC(=O)O)C(N)=O
Method: as §1, §2, §3

[11] = substrate: CC(C)CC[C@H](NC(=O)[C@H](C)NC(=O)[C@H](CCC(N)=O)NC(=O)c1ccccc1N)C(=O)N[C@@H](CO)C(=O)N[C@@H](Cc1ccc(O)c([N+](=O)[O-])c1)C(=O)N[C@@H](CC(=O)O)C(N)=O
Method: as §1, §2, §3

[12] = substrate: CC(C)CC[C@H](NC(=O)[C@H](C)NC(=O)[C@H](Cc1ccc(-c2ccccc2)cc1)NC(=O)c1ccccc1N)C(=O)N[C@@H](CC(C)C)C(=O)N[C@@H](Cc1ccc(O)c([N+](=O)[O-])c1)C(=O)N[C@@H](CC(=O)O)C(N)=O
Method: as §1, §2, §3

B1: Der pI (Dermatophagoides pteronyssinus) (protein)
chain: TNACSINGNAPAEIDLRQMRTVTPIRMQGGCGSCWAFSGVAATESAYLAYRNQSLDLAEQELVDCASQHGCHGDTIPRGIEYIQHNGVVQESYYRYVAREQSCRRPNAQRFGISNYCQIYPPNVNKIREALAQTHSAIAVIIGIKDLDAFRHYDGRTIIQRDNGYQPNYHAVNIVGYSNAQGVDYWIVRNSWDTNWGDNGYGYFAANIDLMMIEEYPYVVIL
notes: tissue SmithKline-Beecham, U.K (crude mite extract); host or cells: crude house dust mite extract
- Km [1]: 2.5 µM
- Km [2]: 3 µM
- Km [3]: 10 µM
- Km [4]: 10 µM
- Km [5]: 20 µM
- Km [6]: 4 µM
- Km [7]: 15 µM
- Km [8]: 4 µM
- Km [9]: 5.0 µM
- Km [10]: 12 µM
- Km [11]: 12 µM
- Km [12]: 3.7 µM
